According to publication doi:10.1101/776245:

Molecular target: SERP2475 (Nhi), full-length (Staphylococcus epidermidis RP62a)
Assay: SEC

Q: Which stoichiometry N does the source give for SERP2475 (Nhi), full-length (enzyme) here?
A: 2
